Data as given in article doi:10.1101/2025.05.21.655409.

Legend:
[1] = biological target: Xenopus laevis histone H4 V22C labelled with Oregon Green 488 (Xenopus laevis) (UniProt P62799); assay: fluorescence polarisation; fluorescence anisotropy; 5 nM OG488-labeled histone, ligase complex titrated; 20 mM Tris-HCl, 10 mM NaCl, 5% glycerol, 1 mM DTT; BSA-coated 96-well plates, 25 °C, 1.5-2.5 h
[2] = biological target: Xenopus laevis histone H3 labelled with Oregon Green 488 at C110 (Xenopus laevis) (UniProt P84233); assay: as above

fold lower affinity than ASB9-CRL [1] [fold]	fold lower affinity than NEDD8-ASB9-CRL [1] [fold]	fold lower affinity than ASB9-CRL [2] [fold]	fold lower affinity than NEDD8-ASB9-CRL [2] [fold]	Kd [1] [µM]	Kd [2] [µM]	Substance
2	4	2	4	–	–	CUL5-RBX2 (from UniProt Q93034 1-780; Q9UBF6 1-113) (complex)
–	–	–	–	0.0797	0.187	ASB9-ELOB/C-CUL5-RBX2 (ASB9-CRL), not neddylated (from UniProt Q96DX5 1-294; Q15370 1-118; Q15369 1-112; Q93034 1-780; Q9UBF6 1-113) (complex)
–	–	–	–	0.0484	0.0782	NEDD8-ASB9-ELOB/C-CUL5-RBX2 (NEDD8-ASB9-CRL) (from UniProt Q96DX5 1-294; Q15370 1-118; Q15369 1-112; Q93034 1-780; Q9UBF6 1-113; Q15843 1-76) (complex)
